± gives the uncertainty stated by the source.
B1: Intersectin-1, residues 909 to 971; numbered along this chain, Q15811 (parent)
chain: QGEKVEGLQAQALYPWRAKKDNHLNFNKNDVITVLEQQDMWWFGEVQGQKGWFPKSYVKLISG

Variants of: B1
Experiment: abundance fitness (aPCA) (normalised: wild type 0, dead -1); higher = more abundant; growth selection in yeast, the domain comes from the species named
Settings: Homo sapiens

QGEKVEGLQADALYPWRAKKDNHLNFNKNDVITVLEQQDMWWFGEVQGQKGWFPKSYVKLISG [Q11D] and QGEKVEGLQAQALYPWRAKKDNHLNFNKNDVITCLEQQDMWWFGEVQGQKGWFPKSYVKLISG [V34C] are within error of each other in abundance fitness: -0.728 ± 0.47 for the first, -0.427 ± 0.28 for the second.

QGEKVEGLQAQALYPWRAKKDNHLNFNKNDVITVLEQQDMWWFGEVQGQKGWFPKSYVKLISM [G63M] and QGEKVEGLQVQALYPWRAKKDNHLNFNKNDVITVLEQQDMWWFGEVQGQKGWFPKSYVKLISG [A10V] are within error of each other in abundance fitness: 0.011 ± 0.22 for the first, 0.095 ± 0.093 for the second.

QGEKVEGLQAQALYPWRAKKDNHLNFNKNDVITVLEQQDMWWFGEVQGQKGWFPKSYVKNISG [L60N] and QGEKVEGLQAQALYPWRKKKDNHLNFNKNDVITVLEQQDMWWFGEVQGQKGWFPKSYVKLISG [A18K] are within error of each other in abundance fitness: -0.254 ± 0.18 for the first, -0.059 ± 0.15 for the second.

QGEKVEGLQAQALYPWRAKKDNHLNFNKNDVITVLEQQDMWWFGEVQLQKGWFPKSYVKLISG [G48L] and QGEEVEGLQAQALYPWRAKKDNHLNFNKNDVITVLEQQDMWWFGEVQGQKGWFPKSYVKLISG [K4E] are within error of each other in abundance fitness: -0.259 ± 0.1 for the first, -0.11 ± 0.13 for the second.

QGEKVEGLQAQALYPWRAKKDNHLNFNKNDVITVLEQQDMWWHGEVQGQKGWFPKSYVKLISG [F43H] and QGEKVEGLQAQALYPWRAKKDRHLNFNKNDVITVLEQQDMWWFGEVQGQKGWFPKSYVKLISG [N22R] are within error of each other in abundance fitness: 0.168 ± 0.47 for the first, -0.142 ± 0.079 for the second.

Compared with QGEKVEGLQAQALYPWRAKKDNHLNFNKNDVITVLEQQDMWWFGEVQSQKGWFPKSYVKLISG [G48S], QGEKVEGLQAQALYPWRAKKDNHLNFNKNDVITVLEQQDMEWFGEVQGQKGWFPKSYVKLISG [W41E] is lower in abundance fitness: -0.149 ± 0.097 for the first, -0.59 ± 0.17 for the second.

First: QGEKVEGLQAQALYPVRAKKDNHLNFNKNDVITVLEQQDMWWFGEVQGQKGWFPKSYVKLISG [W16V]
Second: QGEKVEGLQAQALYPWRAKKDNHLNFNKNLVITVLEQQDMWWFGEVQGQKGWFPKSYVKLISG [D30L]
The abundance fitness of the first is higher: -0.357 ± 0.08 for the first, -0.751 ± 0.042 for the second.

QGEKVEGLPAQALYPWRAKKDNHLNFNKNDVITVLEQQDMWWFGEVQGQKGWFPKSYVKLISG [Q9P] and QGVKVEGLQAQALYPWRAKKDNHLNFNKNDVITVLEQQDMWWFGEVQGQKGWFPKSYVKLISG [E3V] are within error of each other in abundance fitness: -0.17 ± 0.2 for the first, -0.293 ± 0.15 for the second.

First: QGEKVEGLQAQALYPWRAKKDNHLNFNKNDVITVLEQQDMWWFGEVQGQKGWSPKSYVKLISG [F53S]
Second: QGEKVEGLQAQALYPWRAKKDNHLNFNKNDVITVLEQQDMWWFGEVQGQKGWFPKSYVKLISC [G63C]
The abundance fitness of the first is lower: -0.932 ± 0.18 for the first, 0.026 ± 0.12 for the second.

QGEKVEGLQAQALYPWRAKRDNHLNFNKNDVITVLEQQDMWWFGEVQGQKGWFPKSYVKLISG [K20R] and QGEKVEGLQAQALYPWRAKKDNHLNFNKNDVITVLEQQDMWWFGEVQGQRGWFPKSYVKLISG [K50R] are within error of each other in abundance fitness: -0.078 ± 0.04 for the first, 0.056 ± 0.12 for the second.

First: QGEKVEGLQAQALYPWRAKKDNHLNFNKNDVITLLEQQDMWWFGEVQGQKGWFPKSYVKLISG [V34L]
Second: QGEKVEGLQAQALYPWRAKKDNHLNFNKNDVITVLEQQDMWWPGEVQGQKGWFPKSYVKLISG [F43P]
The abundance fitness of the first is higher: -0.343 ± 0.083 for the first, -0.808 ± 0.17 for the second.

QGEKVEGLQAQALYPWRAKKDNHLNFNKNDVITVLEQGDMWWFGEVQGQKGWFPKSYVKLISG [Q38G] and QGEKVEGLQAQALYPWRAKKDNYLNFNKNDVITVLEQQDMWWFGEVQGQKGWFPKSYVKLISG [H23Y] are within error of each other in abundance fitness: 0.026 ± 0.079 for the first, -0.171 ± 0.13 for the second.

Compared with QGEKVEGLQAQALYPWRAKKDNHLNFNKNDVITVLETQDMWWFGEVQGQKGWFPKSYVKLISG [Q37T], QGEKVEGLQAQALYPWRAKKDNHLNANKNDVITVLEQQDMWWFGEVQGQKGWFPKSYVKLISG [F26A] is lower in abundance fitness: -0.052 ± 0.18 for the first, -0.767 ± 0.23 for the second.

First: QGEKVEGLGAQALYPWRAKKDNHLNFNKNDVITVLEQQDMWWFGEVQGQKGWFPKSYVKLISG [Q9G]
Second: QGEKVEGLQAQAVYPWRAKKDNHLNFNKNDVITVLEQQDMWWFGEVQGQKGWFPKSYVKLISG [L13V]
The abundance fitness of the first is lower: -0.331 ± 0.071 for the first, 0.091 ± 0.12 for the second.

Compared with QGEKVEGLQAQALYPWRAYKDNHLNFNKNDVITVLEQQDMWWFGEVQGQKGWFPKSYVKLISG [K19Y], QGEKVEGLQAQALYPWRAKKDNHLNFNKNGVITVLEQQDMWWFGEVQGQKGWFPKSYVKLISG [D30G] is lower in abundance fitness: -0.078 ± 0.056 for the first, -0.75 ± 0.055 for the second.

QGEKVEGLQAQALYPWRAKKDNHLNFQKNDVITVLEQQDMWWFGEVQGQKGWFPKSYVKLISG [N27Q] and QGEKVEGLQAQALYPWRAKKDNHLNFNKNDVITVLEQQDMWWFGEVTGQKGWFPKSYVKLISG [Q47T] are within error of each other in abundance fitness: -0.143 ± 0.24 for the first, -0.014 ± 0.14 for the second.

Going from QGEKVEGLQAQALYPWRAKKDNHLNENKNDVITVLEQQDMWWFGEVQGQKGWFPKSYVKLISG [F26E] to QGEKVEGLQAQALYPWRAKKDNHLNFNQNDVITVLEQQDMWWFGEVQGQKGWFPKSYVKLISG [K28Q], the abundance fitness rises from -1.07 ± 0.39 to -0.197 ± 0.41.

QGEKVEGLQAQALYPWRAKKDNHLNFNKNDVITVLEQQDMWWFGEVQGQKGWFPKSYVKVISG [L60V] and QGEKVEGLQAQALYPWRAKKDNHLNFNKNDVITVLEQQRMWWFGEVQGQKGWFPKSYVKLISG [D39R] are within error of each other in abundance fitness: -0.06 ± 0.1 for the first, -0.182 ± 0.072 for the second.

Going from QGEKVEGLQAQALYPWRAKKDNHLNFNKNDVITVLEQQDMWWFGEVSGQKGWFPKSYVKLISG [Q47S] to QGEKVEGLQAQALYPWRAKKDNHLNFNKNDVITVLEQQDMWWFPEVQGQKGWFPKSYVKLISG [G44P], the abundance fitness falls from -0.167 ± 0.1 to -1.11 ± 0.41.

Going from QGEKVEGLQAQALYPWRAKKDNHLNFNKNMVITVLEQQDMWWFGEVQGQKGWFPKSYVKLISG [D30M] to QGEKVEGLQAQALYPWRAKKDNHLNFNKNDVITVLEQQDMWWFGEVQEQKGWFPKSYVKLISG [G48E], the abundance fitness rises from -0.252 ± 0.051 to 0.011 ± 0.15.

Going from QGEKVEGLQAQALYPWRAKKDNHLNFNKNDVITVLEQQDMWWFGEAQGQKGWFPKSYVKLISG [V46A] to QGEKVEGLQAQALYPWRAKKDNHLNFNKNDVITVLEQQDMWEFGEVQGQKGWFPKSYVKLISG [W42E], the abundance fitness falls from 0.015 ± 0.078 to -0.814 ± 0.12.
